In PMC6514633, “Structural and functional consequences of age-related isomerization in α-crystallins” (The Journal of Biological Chemistry, 2019):
One block for each binder: values may come before it. Where no end group is shown, it is not given here. [ ]: non-standard residue; d: D form.

B4: Core αB (cABC, residues 68–153) (domain or fragment, human, UniProt P02511 68-153, looked up)
chain: MRLEKDRFSVNLDVKHFSPEELKVKVLGDVIEVHGKHEERQDEHGFISREFHRKYRIPADVDPLTITSSLSSDGVLTVNGPRKQVS
notes: αB-crystallin, human, α-crystallin core domain, residues 68-153; also called αB core; core of αB

Key:
[1] = biological target: core αA (cAAC, residues 59–153) (human, UniProt P02489 59-153, some population of BME-adducted protein); experiment: native MS; competition: core domain 10 μM mixed with an L-Ser and a D-Ser peptide (one with added glycines), 40 μM each (4:1 peptide/domain), 200 mM ammonium acetate pH 6.9; monomeric species, 5+, 6+, 7+ charge states quantified; conditions: both partners purified
[2] = biological target: B4; experiment: as above; conditions: both partners purified
[3] = biological target: the molecule itself; experiment: native MS; full-length αB and mutants, 15 μM by monomer, 200 mM ammonium acetate pH 6.9, QExactive Orbitrap; intact spectra and CID with charge deconvolution (UniDec) to oligomeric distributions
[4] = biological target: the molecule itself; experiment: native MS; core domains analysed alone, 10 μM, 200 mM ammonium acetate pH 6.9, Synapt G1
[5] = biological target: core αA (cAAC, residues 59-153) (human, UniProt P02489 59-153, some population of BME-adducted protein); experiment: native MS; competition: 10 μM core domain with 40 μM each of L-Ser and D-Ser peptide, 200 mM ammonium acetate pH 6.9; monomeric species, 5+, 6+ and 7+ charge states; approximate dissociation constants calculated from abundance ratios (El-Hawiet et al.); conditions: both partners purified
Sequence of core αA (cAAC, residues 59-153) (P02489 59-153): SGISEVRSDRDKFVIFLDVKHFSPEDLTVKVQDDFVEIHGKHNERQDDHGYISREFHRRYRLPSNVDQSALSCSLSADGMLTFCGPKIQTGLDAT

Sequence of core αA (cAAC, residues 59–153) (P02489 59-153): as above

binding result [1]: binds
binding result [2]: binds
Binder: GERAIPVSREG [G-Ct-G peptide GERAIPVSREG with L-Ser (appended-glycine L-isomer)]

B1: Full-length αB-crystallin (WT) (natural protein, human, UniProt P02511 1-175, looked up)
chain: MDIAIHHPWIRRPFFPFHSPSRLFDQFFGEHLLESDLFPTSTSLSPFYLRPPSFLRAPSWFDTGLSEMRLEKDRFSVNLDVKHFSPEELKVKVLGDVIEVHGKHEERQDEHGFISREFHRKYRIPADVDPLTITSSLSSDGVLTVNGPRKQVSGPERTIPITREEKPAVTAAPKK
notes: αB-crystallin, human, full length; Polydisperse oligomers; also called WT αB
binding result [3]: binds

B2: Full-length αB-crystallin D109A (isoAsp-mimic) (natural protein, human, UniProt P02511 1-175, looked up)
chain: MDIAIHHPWIRRPFFPFHSPSRLFDQFFGEHLLESDLFPTSTSLSPFYLRPPSFLRAPSWFDTGLSEMRLEKDRFSVNLDVKHFSPEELKVKVLGDVIEVHGKHEERQAEHGFISREFHRKYRIPADVDPLTITSSLSSDGVLTVNGPRKQVSGPERTIPITREEKPAVTAAPKK
notes: αB-crystallin, human, full length, with D109A; source: expressed and purified in the same manner as WT
binding result [3]: binds

B3: Full-length αB-crystallin S59D (phosphomimic) (natural protein, human, UniProt P02511 1-175, looked up)
chain: MDIAIHHPWIRRPFFPFHSPSRLFDQFFGEHLLESDLFPTSTSLSPFYLRPPSFLRAPDWFDTGLSEMRLEKDRFSVNLDVKHFSPEELKVKVLGDVIEVHGKHEERQDEHGFISREFHRKYRIPADVDPLTITSSLSSDGVLTVNGPRKQVSGPERTIPITREEKPAVTAAPKK
notes: αB-crystallin, human, full length, with S59D; also called αBS59D; source: expressed and purified in the same manner as WT
stoichiometry N [3]: ~18

Binder: B4
stoichiometry N [4]: 2

Kd [5]: 660 µM
Binder: ERAIPV[dS]RE [C-terminal palindromic peptide of αA-crystallin with D-Ser-162 (D-peptide)]

Kd [1]: 48 µM
Kd [2]: 115 µM
Binder: ERAIPVSRE [Ct peptide ERAIPVSRE with L-Ser (canonical all L-amino acid form)]
